Measurements published in publication PMC9820991, “Elucidating the Interaction between Pyridoxine 5′-Phosphate Oxidase and Dopa Decarboxylase: Activation of B6-Dependent Enzyme” (International Journal of Molecular Sciences, 2022).

B1: human pyridoxine 5′-phosphate oxidase (enzyme, UniProt Q9NVS9 1-261, looked up)
chain: MTCWLRGVTATFGRPAEWPGYLSHLCGRSAAMDLGPMRKSYRGDREAFEETHLTSLDPVKQFAAWFEEAVQCPDIGEANAMCLATCTRDGKPSARMLLLKGFGKDGFRFFTNFESRKGKELDSNPFASLVFYWEPLNRQVRVEGPVKKLPEEEAECYFHSRPKSSQIGAVVSHQSSVIPDREYLRKKNEELEQLYQDQEVPKPKSWGGYVLYPQVMEFWQGQTNRLHDRIVFRRGLPTGDSPLGPMTHRGEEDWLYERLAP
notes: human pyridoxine 5′-phosphate oxidase (PNPO), recombinant; FMN-dependent enzyme; FMN was present during lysis and the first dialysis; also called PNPO; hPNPO; source: E. coli, purified (Histrap Ni2+ column, dialysis)

What was measured:
GAD = GAD (UniProt Q99259); assay: FP/SPR; conditions: cited from earlier work
Sequence of GAD (Q99259 whole entry): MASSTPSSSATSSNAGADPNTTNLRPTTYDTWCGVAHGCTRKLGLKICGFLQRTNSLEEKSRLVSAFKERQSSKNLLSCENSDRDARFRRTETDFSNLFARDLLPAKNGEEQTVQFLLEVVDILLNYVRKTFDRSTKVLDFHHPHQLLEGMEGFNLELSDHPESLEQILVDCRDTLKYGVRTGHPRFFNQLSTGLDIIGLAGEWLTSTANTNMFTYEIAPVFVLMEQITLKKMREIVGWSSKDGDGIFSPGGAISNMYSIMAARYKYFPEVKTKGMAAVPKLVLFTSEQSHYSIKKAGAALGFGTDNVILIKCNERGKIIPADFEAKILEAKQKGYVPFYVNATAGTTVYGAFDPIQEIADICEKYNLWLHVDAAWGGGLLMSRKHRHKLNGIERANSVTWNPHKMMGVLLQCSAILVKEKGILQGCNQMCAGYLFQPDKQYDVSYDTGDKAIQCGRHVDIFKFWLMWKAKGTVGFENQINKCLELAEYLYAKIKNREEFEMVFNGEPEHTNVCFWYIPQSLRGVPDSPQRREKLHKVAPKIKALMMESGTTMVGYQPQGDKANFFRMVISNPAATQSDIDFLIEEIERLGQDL

AAT [1] = molecular target: AAT (UniProt P17174); assay: FP/SPR; conditions: cited from earlier work
Sequence of AAT (P17174 2-413): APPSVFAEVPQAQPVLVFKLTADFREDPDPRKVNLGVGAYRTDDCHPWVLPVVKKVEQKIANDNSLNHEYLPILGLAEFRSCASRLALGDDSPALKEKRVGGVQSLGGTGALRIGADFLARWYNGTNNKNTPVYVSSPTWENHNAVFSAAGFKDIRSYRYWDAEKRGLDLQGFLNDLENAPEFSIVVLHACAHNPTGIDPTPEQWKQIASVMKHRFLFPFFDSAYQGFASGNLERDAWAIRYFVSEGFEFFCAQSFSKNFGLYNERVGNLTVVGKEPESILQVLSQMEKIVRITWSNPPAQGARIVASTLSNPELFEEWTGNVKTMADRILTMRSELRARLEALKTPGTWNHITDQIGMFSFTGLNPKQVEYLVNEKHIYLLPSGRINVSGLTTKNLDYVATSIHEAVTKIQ

AAT [2] = molecular target: AAT (UniProt P17174); assay: fluorescence spectroscopy; conditions: cited from earlier work
[3] = molecular target: T1, serine hydroxymethyltransferase (rabbit cytoplasmic), holo form (rabbit, UniProt P07511 1-484, PLP cofactor (holo form), residue not stated); assay: SPR; Biacore T200, 25 °C; apoDDC, holoDDC and holoSHMT immobilised on a CM5 chip by amine coupling; analytes PNPO and albumin 100 to 1.5625 µM in PBS-P (10 mM phosphate pH 7.4, 140 mM NaCl, 3 mM KCl, 0.05% P20), 50 µL/min; conditions: both partners purified
T1 construct: rabbit cytoplasmic serine hydroxymethyltransferase, recombinant, holo form; Positive control of the SPR experiment; also called holoSHMT; SHMT
T1 sequence (looked up): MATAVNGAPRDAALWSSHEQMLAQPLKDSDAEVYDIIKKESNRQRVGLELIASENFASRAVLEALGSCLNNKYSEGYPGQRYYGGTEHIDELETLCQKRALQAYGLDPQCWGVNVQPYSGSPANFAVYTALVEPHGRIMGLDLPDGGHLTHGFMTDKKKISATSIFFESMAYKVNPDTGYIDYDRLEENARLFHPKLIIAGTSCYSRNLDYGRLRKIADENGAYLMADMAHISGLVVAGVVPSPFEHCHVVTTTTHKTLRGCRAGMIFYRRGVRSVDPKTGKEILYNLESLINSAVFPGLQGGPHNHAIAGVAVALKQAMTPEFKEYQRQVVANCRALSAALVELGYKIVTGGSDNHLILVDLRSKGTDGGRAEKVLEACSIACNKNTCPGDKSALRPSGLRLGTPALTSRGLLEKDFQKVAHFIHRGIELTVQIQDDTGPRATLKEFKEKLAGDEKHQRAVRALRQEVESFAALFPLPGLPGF

[4] = molecular target: T2, human dopa decarboxylase, holo form (human, UniProt P20711 1-480, PLP as internal aldimine on Lys303); assay: as above; conditions: both partners purified
T2 construct: also called holoDDC; DDC; source: E. coli BL21(DE3)pLysS, purified (Histrap Ni2+ column, dialysis against PLP); not shown: His tag (from the Histrap column)
T2 sequence (looked up): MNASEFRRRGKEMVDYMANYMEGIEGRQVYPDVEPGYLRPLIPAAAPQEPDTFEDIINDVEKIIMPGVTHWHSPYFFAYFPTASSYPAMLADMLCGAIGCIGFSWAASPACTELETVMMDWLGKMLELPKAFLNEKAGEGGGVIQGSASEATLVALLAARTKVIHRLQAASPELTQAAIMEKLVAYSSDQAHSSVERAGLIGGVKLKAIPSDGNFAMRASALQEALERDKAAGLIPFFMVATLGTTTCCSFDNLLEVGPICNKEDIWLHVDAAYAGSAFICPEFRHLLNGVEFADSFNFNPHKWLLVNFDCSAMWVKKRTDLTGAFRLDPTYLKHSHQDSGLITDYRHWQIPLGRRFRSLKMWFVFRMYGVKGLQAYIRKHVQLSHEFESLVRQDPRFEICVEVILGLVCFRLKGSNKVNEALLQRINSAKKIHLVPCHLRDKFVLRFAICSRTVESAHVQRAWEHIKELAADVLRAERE

[5] = molecular target: T2, human dopa decarboxylase, holo form; assay: ITC; PNPO titrated into holoDDC or apoDDC in the cell; MICROCAL PEAQ-ITC, 25 °C, 19 injections of 2 µL; 50 mM potassium phosphate pH 7.4, 150 mM NaCl; at least triplicate; conditions: both partners purified
[6] = molecular target: T3, human dopa decarboxylase, apo form (human, UniProt P20711 1-480); assay: as above; conditions: both partners purified
T3 construct: same chain as m2 without PLP; Made from holoDDC by removal of the cofactor; also called apoDDC; source: E. coli BL21(DE3)pLysS, purified (Histrap Ni2+ column); PLP removed with 5 mM hydroxylamine and dialysis; not shown: His tag (from the Histrap column)
T3 sequence (looked up): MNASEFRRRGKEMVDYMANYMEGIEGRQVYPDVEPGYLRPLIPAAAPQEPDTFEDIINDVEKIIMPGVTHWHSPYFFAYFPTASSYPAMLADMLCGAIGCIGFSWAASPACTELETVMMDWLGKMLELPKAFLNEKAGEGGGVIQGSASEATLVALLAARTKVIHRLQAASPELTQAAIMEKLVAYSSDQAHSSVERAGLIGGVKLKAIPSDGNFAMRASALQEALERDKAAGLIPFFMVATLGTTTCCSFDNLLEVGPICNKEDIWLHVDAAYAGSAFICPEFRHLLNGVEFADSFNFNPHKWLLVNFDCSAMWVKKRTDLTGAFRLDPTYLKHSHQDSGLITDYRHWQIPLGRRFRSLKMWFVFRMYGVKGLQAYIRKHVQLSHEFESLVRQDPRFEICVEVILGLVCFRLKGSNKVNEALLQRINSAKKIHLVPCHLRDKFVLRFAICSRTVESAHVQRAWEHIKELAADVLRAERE

Row | Molecule | Kd (GAD) [nM] | Kd (AAT [1]) [nM] | Kd (AAT [2]) [nM] | Kd [3] [nM] | Kd [4] [nM] | Kd [5] [nM] | dH [5] [kcal/mol] | stoichiometry N [5] | Kd [6] [nM] | dH [6] [kcal/mol] | stoichiometry N [6]
1 | PLK (from UniProt O00764) | 2700 | 4900 | 3000 | – | – | – | – | – | – | – | –
2 | B1 | – | – | – | 15400 | 3700 | 2590 ± 110 | -2.33 ± 0.1 | 0.94 ± 0.04 | 920 ± 70 | -3.03 ± 0.1 | 0.52 ± 0.01
